Starred links: 1 amine or outer side, 2 acyl side, 3 side chain; linkers in the order of their positions; H or OH if unused. Non-standard residues stand in square brackets, D forms with d. Primed or numbered codes have the meaning given here. aTyr = Tyr with backbone N-amino (N-aminated amide nitrogen), NN([C@@H](Cc1ccc(O[*:3])cc1)C(=O)[*:2])[*:1]; aIle′ = Ile with backbone N-amino (N-aminated amide nitrogen), CC[C@H](C)[C@@H](C(=O)[*:2])N(N)[*:1]; aVal = Val with backbone N-amino (N-aminated amide nitrogen), CC(C)[C@@H](C(=O)[*:2])N(N)[*:1]; N(NH2)Lys = NCCCC[C@H](NN)C(=O)O
Biological target: Human tauP301L (0N4R), recombinant, N-terminal His tag (UniProt P10636 2-758)
Sequence (P10636 other isoform, or with tags, fused parts or gaps): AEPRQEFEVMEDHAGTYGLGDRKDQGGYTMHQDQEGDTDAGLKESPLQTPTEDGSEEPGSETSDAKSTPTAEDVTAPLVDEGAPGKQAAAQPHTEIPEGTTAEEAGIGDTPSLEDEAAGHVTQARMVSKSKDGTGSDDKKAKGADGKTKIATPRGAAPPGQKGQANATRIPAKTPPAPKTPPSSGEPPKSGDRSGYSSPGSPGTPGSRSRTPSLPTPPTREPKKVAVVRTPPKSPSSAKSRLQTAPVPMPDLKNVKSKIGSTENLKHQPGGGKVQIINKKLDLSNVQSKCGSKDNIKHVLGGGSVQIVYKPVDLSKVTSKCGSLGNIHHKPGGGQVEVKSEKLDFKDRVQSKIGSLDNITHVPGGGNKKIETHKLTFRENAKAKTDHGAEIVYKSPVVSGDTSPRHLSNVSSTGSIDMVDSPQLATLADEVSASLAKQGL
Assay: capping of pre-formed Tau P301L fibers, inhibition of seeding in HEK293 tau-RD-YFP cells

Row | IC50 | Binder
1 | 4.7 µM | Ac-VQI[aVal]Y[N(NH2)Lys]-NH2 (SMILES CC[C@H](C)[C@H](NC(=O)[C@H](CCC(N)=O)NC(=O)[C@@H](NC(C)=O)C(C)C)C(=O)N(N)[C@H](C(=O)N[C@@H](Cc1ccc(O)cc1)C(=O)N(N)[C@@H](CCCCN)C(N)=O)C(C)C) [Compound 13, Ac-Val-Gln-Ile-aVal-Tyr-aLys-NH2]
2 | > 20 µM | Ac-[aVal]Q[aIle′]INK-NH2 (SMILES CC[C@H](C)[C@H](NC(=O)[C@H]([C@@H](C)CC)N(N)C(=O)[C@H](CCC(N)=O)NC(=O)[C@H](C(C)C)N(N)C(C)=O)C(=O)N[C@@H](CC(N)=O)C(=O)N[C@@H](CCCCN)C(N)=O) [Compound 4, Ac-aVal-Gln-aIle-Ile-Asn-Lys-NH2]
3 | 4.8 µM | Ac-VQ[aIle′]V[aTyr]K-NH2 (SMILES CC[C@H](C)[C@@H](C(=O)N[C@H](C(=O)N(N)[C@@H](Cc1ccc(O)cc1)C(=O)N[C@@H](CCCCN)C(N)=O)C(C)C)N(N)C(=O)[C@H](CCC(N)=O)NC(=O)[C@@H](NC(C)=O)C(C)C) [Compound 12, Ac-Val-Gln-aIle-Val-aTyr-Lys-NH2]

From patent US20240116984A1 (published 2024)
